According to patent US20260077011A1, “INTEGRIN INHIBITORS AS THERAPY FOR OBESITY DISORDERS” (priority 2022, published 2026):
Where no end group is shown, it is not given here.

Legend:
RAW264.7 cells = format: cell-based
Description: (§1) Cells were also analyzed for the FITC-labeled peptide, which was added to the suspension of RAW264.7 cells in doses of 100 nM, 1 μM, 3 μM, 10 μM, 30 μM, 100 μM, and 300 μM, for one hour. For the time curve binding assay, 3 μM of the FITC-peptide were incubated with cells for 1, 5, 15, 60, 180, and 360 minutes before and analyzed on flow cytometry. For the propidium iodide (PI) assay, cells were incubated with different doses of the peptide for eight and 24 hours, with 10% DMSO serving as a positive control; the cells were then suspended, stained with PI, and analyzed with flow cytometry.
To investigate the effects of the SVEP1-based peptide on the metabolic and proliferative capacity of macrophage cells, RAW264.7 cells were subjected to varying concentrations of the peptide (1, 10, 30, 120 μM). The cells' metabolic activity was assessed using XTT after 3, 8, and 24 hours of peptide treatment. […] To further evaluate cell viability, propidium iodide (PI) staining was conducted after 8 and 24 hours of peptide treatment. […] These findings provide evidence of the peptide's safety profile and its potential suitability for use in macrophage cells.

ITGA9 = molecular target: T1, ITGA9 (Mus musculus, UniProt B8JK39+P09055); test: FITC-peptide binding specificity in ITGA9 knockdown (siITGA9) cells; conditions: RAW264.7 cells, FITC-peptide 30 μM, 60 minutes
T1 construct: RAW264.7 cells, a murine macrophage-like cell line, was chosen due to their similarity to macrophages, adhesive and migratory capabilities, and their expression of integrin α9β1; host or cells: RAW264.7
Description: For siRNA assays, RAW264.7 cells were transfected by using Avalanche®-Everyday Transfection Reagent (Ezbio systems) with siSCR (Santa Cruz) and siITGA9 (Santa Cruz) in DMEM. The transfection solution was added to the cells for 48 hours, and the cells were examined after an additional 48 hours (96 hours in total).
(§2) RAW264.7 cells were incubated in PBS with 2% serum, 0.1% NaN3, and 1 mM EDTA for 20 minutes, collected, and centrifuged at 1800 rpm for 5 min. Next, the cells were suspended in a staining buffer; PBS with 2% serum and 0.1% NaN3 for 15 min on ice. The cells were stained for ITGA9-PE (R&D technologies).
In a previous study, a 9 amino-acid long sequence, “EDDMMEVPY”, was identified as the binding site of SVEP1 to integrin α9β1. […] The inventors first performed a dose-dependent uptake test, where the RAW264.7 cells were incubated with increasing peptide concentrations for half an hour and then measured in a flow cytometry assay. […] Next, the cells were pretreated with the peptide for different time durations and were also measured by flow cytometry analysis. The peptide bonded relatively quickly, with 50% of max mean fluorescence intensity presented after 15 minutes and stabilization after three hours (FIG. 5C). […]

integrin α9β1 [1] = molecular target: T2, integrin α9β1 (Mus musculus, UniProt B8JK39+P09055); test: FITC-peptide dose-dependent uptake and time curve binding, flow cytometry; conditions: RAW264.7 cells
T2 construct: RAW264.7 cells, a murine macrophage-like cell line, was chosen due to their similarity to macrophages, adhesive and migratory capabilities, and their expression of integrin α9β1; host or cells: RAW264.7
Description: as §2, §1
All labeled cells were analyzed by Cytoflex5l and Kaluza software (Beckman Coulter instrument).
In a previous study, a 9 amino-acid long sequence, “EDDMMEVPY”, was identified as the binding site of SVEP1 to integrin α9β1. To examine the effect of the peptide in vitro, RAW264.7 cells, a murine macrophage-like cell line, was chosen due to their similarity to macrophages, adhesive and migratory capabilities, and their expression of integrin α9β1, as shown in the confocal staining of ITGA9 and F4/80, with a seeming membranal expression of both (FIG. 5G). […] To characterize the binding properties of the peptide, a fluorescein isothiocyanate (FITC) labeled peptide was generated. The inventors first performed a dose-dependent uptake test, where the RAW264.7 cells were incubated with increasing peptide concentrations for half an hour and then measured in a flow cytometry assay. […] Next, the cells were pretreated with the peptide for different time durations and were also measured by flow cytometry analysis. The peptide bonded relatively quickly, with 50% of max mean fluorescence intensity presented after 15 minutes and stabilization after three hours (FIG. 5C). […]

integrin α9β1 [2] = molecular target: T2, integrin α9β1; test: Fluorescent live microscopy of FITC-peptide binding with/without unlabeled peptide; conditions: RAW264.7 cells, FITC-peptide 30 μM
Description: FIGS. 5A-5M include fluorescent micrographs and graphs showing characterization of the peptide's binding properties. (5A) Representative immunofluorescent confocal images of Raw264.7 cells stained for F4/80 and ITGA9, the dotted line square represents the magnified pictures, scale bar 116 μm. (5B) Flow cytometry quantification of LPS-activated RAW264.7 cells, ITGA9 MFI levels in LPS-activated RAW264.7 cells (4 hours), significance was calculated by unpaired t-test analysis. (5C) Calculated dose-response curve of Peptide-FITC positive RAW264.7 cells, measured in flow cytometry and time curve of the averaged mean fluorescent intensity (MFI) of RAW264.7 cells incubated with the labeled peptide, the MFI was calculated by flow cytometry. (5D) Representative images of RAW264.7 cells incubated with FITC-peptide (30 μM) for 15 and 60 minutes with and without an unlabeled peptide, scale bar=100 μm, and quantification of fluorescence intensity of RAW264.7 cells incubated with FITC-peptide (30 μM) for 15 and 60 minutes, w/o the unlabeled peptide, significance was calculated by using an ordinary one-way ANOVA. […] (5F) ITGA9 fluorescence intensity histogram in Scrambled and ITGA9 KD (Red) Raw264.7 cells incubated with FITC-peptide (30 μM) for 60 minutes, measured by flow cytometry. […]

T2 sequence (B8JK39 29-1036): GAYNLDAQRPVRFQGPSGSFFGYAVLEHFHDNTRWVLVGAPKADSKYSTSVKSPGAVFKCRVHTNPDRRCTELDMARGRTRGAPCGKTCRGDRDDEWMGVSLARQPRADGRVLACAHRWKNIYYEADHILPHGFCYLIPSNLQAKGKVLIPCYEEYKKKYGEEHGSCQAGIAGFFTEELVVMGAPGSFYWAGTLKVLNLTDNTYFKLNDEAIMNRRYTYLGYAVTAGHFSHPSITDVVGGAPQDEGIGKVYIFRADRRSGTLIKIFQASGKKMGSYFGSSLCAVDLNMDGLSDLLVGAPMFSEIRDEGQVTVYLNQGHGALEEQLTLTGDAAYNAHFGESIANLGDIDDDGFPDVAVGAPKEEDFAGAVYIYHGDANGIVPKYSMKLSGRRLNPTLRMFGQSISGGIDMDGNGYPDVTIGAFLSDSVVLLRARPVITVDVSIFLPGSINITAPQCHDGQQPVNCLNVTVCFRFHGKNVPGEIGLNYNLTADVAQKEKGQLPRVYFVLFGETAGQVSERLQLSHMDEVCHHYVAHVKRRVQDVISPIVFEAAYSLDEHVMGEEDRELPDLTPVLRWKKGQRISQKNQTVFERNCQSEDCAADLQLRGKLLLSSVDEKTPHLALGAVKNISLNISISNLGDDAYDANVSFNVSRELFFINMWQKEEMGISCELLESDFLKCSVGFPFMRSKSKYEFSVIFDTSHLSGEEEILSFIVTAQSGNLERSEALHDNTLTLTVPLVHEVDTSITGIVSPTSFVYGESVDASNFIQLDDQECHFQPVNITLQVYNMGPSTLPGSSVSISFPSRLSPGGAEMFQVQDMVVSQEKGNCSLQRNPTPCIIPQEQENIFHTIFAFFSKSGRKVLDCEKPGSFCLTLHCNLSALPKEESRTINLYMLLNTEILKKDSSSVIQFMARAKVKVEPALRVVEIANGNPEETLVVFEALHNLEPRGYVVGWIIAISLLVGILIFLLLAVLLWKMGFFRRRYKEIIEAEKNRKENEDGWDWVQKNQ
T2 sequence (P09055 21-798): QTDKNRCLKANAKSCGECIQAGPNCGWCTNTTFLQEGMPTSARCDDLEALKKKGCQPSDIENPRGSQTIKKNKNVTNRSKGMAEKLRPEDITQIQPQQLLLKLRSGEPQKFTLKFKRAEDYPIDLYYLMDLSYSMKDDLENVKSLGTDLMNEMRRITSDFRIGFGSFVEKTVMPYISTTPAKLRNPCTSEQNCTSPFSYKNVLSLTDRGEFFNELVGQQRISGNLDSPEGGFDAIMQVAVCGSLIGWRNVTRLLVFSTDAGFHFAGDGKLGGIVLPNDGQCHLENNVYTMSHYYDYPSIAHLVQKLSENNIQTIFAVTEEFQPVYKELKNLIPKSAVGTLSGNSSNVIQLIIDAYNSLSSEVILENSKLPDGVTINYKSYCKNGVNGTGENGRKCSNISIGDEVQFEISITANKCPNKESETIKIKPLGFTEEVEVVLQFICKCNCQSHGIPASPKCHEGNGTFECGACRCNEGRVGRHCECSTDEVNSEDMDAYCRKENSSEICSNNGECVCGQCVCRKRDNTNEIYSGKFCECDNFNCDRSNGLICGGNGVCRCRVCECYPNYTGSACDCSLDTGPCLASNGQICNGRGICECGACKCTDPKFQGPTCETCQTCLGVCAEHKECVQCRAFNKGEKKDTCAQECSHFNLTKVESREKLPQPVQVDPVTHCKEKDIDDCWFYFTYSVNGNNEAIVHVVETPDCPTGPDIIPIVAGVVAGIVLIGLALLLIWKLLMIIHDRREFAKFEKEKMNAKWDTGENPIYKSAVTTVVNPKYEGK
T1 sequence (B8JK39 29-1036): as the sequence (B8JK39 29-1036) above
T1 sequence (P09055 21-798): as the sequence (P09055 21-798) above

Substance: EDDMMEVPY [peptide, EDDMMEVPY]
- fraction of PI-positive cells compared to the untreated group (RAW264.7 cells): remained unchanged

Substance: FITC-peptide: fluorescein isothiocyanate (FITC) labeled peptide of 9 amino acids (EDDMMEVPY) (also: FITC labeled, site not given here)
- FITC-peptide binding (fluorescence intensity) in siITGA9 versus scrambled cells (ITGA9): lower intensity levels
- percentage of ITGA9+FITC-peptide+ cells in KD cells (ITGA9; flow cytometry): significantly lower
- time to 50% of max mean fluorescence intensity (integrin α9β1 [1]; 3 μM FITC-peptide): 15 min
- time to stabilization of mean fluorescence intensity (integrin α9β1 [1]; 3 μM FITC-peptide): three
- percentage of Peptide-FITC positive cells (integrin α9β1 [1]; increasing peptide concentrations, half an hour): higher percentage of positive cells in a dose-related manner
- increase of fluorescence intensity after 60 minutes compared to 15 minutes (integrin α9β1 [2]): 35%
- change of fluorescence intensity when co-incubated with the unlabeled peptide (integrin α9β1 [2]; competitive binding): decreased by a similar percentage
